Reference: the RNAGym collection of RNA variant scans (doi:10.7554/elife.80360)

B1: Hairpin Ribozyme (parent)
chain: GUCCUCUUUCACGUGCGCGUGAAAGAGAGAAGUGAACCAGAGAAACACACGUUGUGGUAUAUUACCUGGUA

Variants of: B1
Assay: self-cleavage, relative activity (ratio to wild type); higher = more cleavage; co-transcriptional

| Variant | self-cleavage |
| --- | --- |
| C6G G69A | 0.251 |
| U7G A71G | 1.06 |
| U7G A71C | 1.35 |
| U7C A23C | 0.455 |
| C6G A24U | 0.331 |
| C6G C38A | 0.103 |
| U7C G25U | 0.494 |
| U7C G25A | 0.306 |
| U7C U58C | 0.775 |
| C6U A43U | 0.119 |
| U7C G34C | 1.37 |
| U7C C16U | 1 |
| U7A A61C | 0.188 |
| U7C G68A | 0.339 |
| U7C G68U | 0.171 |
| U7A U58G | 0.775 |
| U7A U58C | 1.02 |
| U7A A59C | 0.136 |
| U7A A59G | 0.194 |
| C6U C37G | 0.372 |
| U7C G13C | 0.518 |
| C6G A45U | 0.101 |
| C6G A45G | 0.0674 |
| U7A A36C | 0.573 |

| Variant | self-cleavage |
| --- | --- |
| C6U G34A | 0.863 |
| C6U G34C | 1.1 |
| U7A C46U | 0.159 |
| U7A C46G | 0.108 |
| U7A A30C | 0.121 |
| U7A A30U | 0.0668 |
| U7A C37G | 0.342 |
| U7G C65A | 0.975 |
| U7G C65G | 0.31 |
| U7A A26G | 0.71 |
| U7A G29U | 0.178 |
| U7A G29A | 0.099 |
| C6U U70A | 0.699 |
| C6U C10G | 0.416 |
| C6G U67A | 0.15 |
| U7C A22U | 0.642 |
| U7C C50A | 0.209 |
| U7C C50G | 0.229 |
| C6G U55C | 0.156 |
| C6G U55G | 0.167 |
| C6G U55A | 0.13 |
| U7A U52A | 0.992 |
| U7G A44G | 0.16 |
| U7A C38U | 0.329 |

| Variant | self-cleavage |
| --- | --- |
| U7A A71U | 0.814 |
| U7A A71G | 0.895 |
| U7G C16U | 0.932 |
| U7G C16G | 0.689 |
| C6G C48A | 0.171 |
| U7G U20C | 0.798 |
| U7A U62G | 0.0626 |
| C6U G51U | 0.88 |
| C6G U7A | 0.337 |
| U7G C66A | 0.205 |
| U7C G57U | 0.213 |
| U7G A47G | 0.174 |
| U7G G57U | 0.175 |
| C6G C12A | 0.572 |
| C6G C12G | 0.294 |
| C6G C12U | 0.332 |
| C6U A44G | 0.132 |
| C6U A44C | 0.119 |
| U7C G21C | 0.962 |
| U7C A47C | 0.205 |
| U7C A47U | 0.0995 |
| U7A G25C | 0.402 |
| C6A U70G | 0.325 |
| U7C A36C | 0.679 |

| Variant | self-cleavage |
| --- | --- |
| C6A U55A | 0.202 |
| C6A U55G | 0.14 |
| C6U G42C | 0.342 |
| C6U C18G | 0.775 |
| C6U C18U | 0.82 |
| U7C G54C | 0.683 |
| U7C G54U | 0.242 |
| U7C C66U | 0.542 |
| C6U G19U | 0.715 |
| U7A A49U | 0.16 |
| U7A A49G | 0.49 |
| C6U A35U | 0.765 |
| U7A G51A | 0.977 |
| C6G A23U | 0.344 |
| C6G A23G | 0.446 |
| C6G C10G | 0.277 |
| C6U G25U | 0.762 |
| C6U G25A | 0.751 |
| U7G G40C | 0.207 |
| U7G G40A | 0.308 |
| U7A A43G | 0.222 |
| C6A G56U | 0.218 |
| C6A G56A | 0.117 |
| C6U U33G | 0.126 |

| Variant | self-cleavage |
| --- | --- |
| U7G A64C | 0.24 |
| U7G A64U | 0.143 |
| U7A G32C | 0.143 |
| C6U A64G | 0.514 |
| C6U A64C | 0.238 |
| C6U A64U | 0.16 |
| U7A A11G | 0.855 |
| U7A A11U | 0.649 |
| C6U A39U | 0.381 |
| U7G A41U | 1.12 |
| U7G A41G | 0.946 |
| U7G A41C | 0.863 |
| C6U G13A | 0.712 |
| C6U G13C | 0.65 |
| C6U G69A | 0.379 |
| U7C C65U | 0.254 |
| C6U U14C | 0.932 |
| C6U U14G | 0.791 |
| C6U U14A | 0.853 |
| C6G A22C | 0.342 |
| U7A U9A | 0.666 |
| U7A U9G | 0.579 |
| U7A U9C | 0.714 |
| U7C A11C | 0.525 |

| Variant | self-cleavage |
| --- | --- |
| U7G A36C | 0.669 |
| C6G G34U | 0.982 |
| C6U U58G | 0.663 |
| C6U U58C | 0.893 |
| U7A G68U | 0.238 |
| U7G G51A | 0.891 |
| C6U A41G | 0.768 |
| C6U A31U | 0.101 |
| C6A U20G | 0.518 |
| C6G A61U | 0.183 |
| C6U G27C | 0.106 |
| C6U G27A | 0.309 |
| C6U G27U | 0.147 |
| U7A A39G | 0.318 |
| C6A U62G | 0.0891 |
| C6A U62A | 0.127 |
| C6G U14C | 0.449 |
| C6G U52A | 0.433 |
| U7G G15U | 0.955 |
| U7G C48G | 0.153 |
| U7A C12G | 0.662 |
| U7G G29U | 0.136 |
| U7G G56U | 0.0768 |
| C6U U67C | 0.222 |

| Variant | self-cleavage |
| --- | --- |
| C6U U67A | 0.151 |
| U7A A24G | 0.702 |
| U7G G42C | 0.316 |
| U7A G17A | 0.865 |
| C6A U58C | 0.697 |
| U7C A31C | 0.112 |
| C6G A26C | 0.22 |
| U7G A35C | 0.757 |
| C6G C66G | 0.166 |
| C6G A41U | 0.873 |
| C6G A11C | 0.45 |
| C6G A11U | 0.314 |
| C6G C16A | 0.54 |
| U7G G69C | 0.191 |
| U7G G69U | 0.166 |
| U7G G69A | 0.398 |
| C6U C46U | 0.176 |
| C6G G25A | 0.523 |
| C6G U62C | 0.116 |
| C6U C50U | 0.386 |
| C6U C50A | 0.24 |
| C6U C50G | 0.299 |
| U7C A24G | 0.628 |
